From patent US20200385439A1
Values belong to the molecule of their own block, whether it stands above or below them. Ends that are not written are not given here.

How the values were obtained:
Experiment in all cases: cell-based or functional assay
[1] = target: mouse glucagon receptor (mouse) (UniProt Q61606)
[2] = target: rat glucagon receptor (rat) (UniProt P30082)
[3] = target: human glucagon receptor (human) (UniProt P47871)
[4] = target: cynomolgus monkey glucagon receptor (cynomolgus monkey)
[5] = target: mouse GLP1 receptor (mouse) (UniProt O35659)
Chain of mouse GLP1 receptor (mouse) (O35659 22-463): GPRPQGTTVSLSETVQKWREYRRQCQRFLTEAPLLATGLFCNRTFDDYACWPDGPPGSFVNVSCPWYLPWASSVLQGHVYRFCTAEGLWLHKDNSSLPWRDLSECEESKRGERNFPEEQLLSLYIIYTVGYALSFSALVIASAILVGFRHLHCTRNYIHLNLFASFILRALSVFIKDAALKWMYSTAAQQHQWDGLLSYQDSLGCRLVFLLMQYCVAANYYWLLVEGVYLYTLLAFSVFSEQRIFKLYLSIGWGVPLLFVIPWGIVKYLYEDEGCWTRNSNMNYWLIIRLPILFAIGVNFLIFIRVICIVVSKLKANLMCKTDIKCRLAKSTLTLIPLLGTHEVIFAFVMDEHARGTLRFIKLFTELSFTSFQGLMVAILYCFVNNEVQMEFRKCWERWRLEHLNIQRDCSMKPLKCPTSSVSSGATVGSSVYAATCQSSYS

[6] = target: cynomolgus monkey GLP1 receptor (cynomolgus monkey) (UniProt F8V479)
[7] = target: CRHR2
[8] = target: CRHR1
[9] = target: human Y1 receptor (human) (UniProt P25929)
Chain of human Y1 receptor (human) (P25929 whole entry): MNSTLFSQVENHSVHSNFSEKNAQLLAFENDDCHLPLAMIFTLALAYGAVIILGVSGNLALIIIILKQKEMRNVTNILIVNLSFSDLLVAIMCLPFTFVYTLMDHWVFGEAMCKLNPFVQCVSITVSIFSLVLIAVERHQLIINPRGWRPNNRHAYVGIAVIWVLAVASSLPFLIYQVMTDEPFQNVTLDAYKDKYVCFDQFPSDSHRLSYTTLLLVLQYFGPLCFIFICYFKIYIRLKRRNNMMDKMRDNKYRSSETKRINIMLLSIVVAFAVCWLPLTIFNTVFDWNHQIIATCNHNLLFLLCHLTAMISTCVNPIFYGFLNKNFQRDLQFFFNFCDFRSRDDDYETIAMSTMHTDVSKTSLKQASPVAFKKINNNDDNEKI

[10] = target: mouse Y2 receptor (mouse) (UniProt P97295)
Chain of mouse Y2 receptor (mouse) (P97295 whole entry): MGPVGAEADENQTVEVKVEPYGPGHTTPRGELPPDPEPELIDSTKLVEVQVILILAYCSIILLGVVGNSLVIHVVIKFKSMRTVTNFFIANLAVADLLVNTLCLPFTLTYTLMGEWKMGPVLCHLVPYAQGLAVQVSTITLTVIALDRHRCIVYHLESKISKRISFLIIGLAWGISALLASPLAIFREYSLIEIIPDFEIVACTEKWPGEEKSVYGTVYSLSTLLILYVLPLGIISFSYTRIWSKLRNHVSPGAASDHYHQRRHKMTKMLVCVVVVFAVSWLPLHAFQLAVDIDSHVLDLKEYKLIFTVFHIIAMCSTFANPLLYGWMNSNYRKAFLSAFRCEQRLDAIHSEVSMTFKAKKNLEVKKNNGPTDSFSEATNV

[11] = target: rhesus monkey Y2 receptor (rhesus monkey) (UniProt Q9GK74)
Chain of rhesus monkey Y2 receptor (rhesus monkey) (Q9GK74 whole entry): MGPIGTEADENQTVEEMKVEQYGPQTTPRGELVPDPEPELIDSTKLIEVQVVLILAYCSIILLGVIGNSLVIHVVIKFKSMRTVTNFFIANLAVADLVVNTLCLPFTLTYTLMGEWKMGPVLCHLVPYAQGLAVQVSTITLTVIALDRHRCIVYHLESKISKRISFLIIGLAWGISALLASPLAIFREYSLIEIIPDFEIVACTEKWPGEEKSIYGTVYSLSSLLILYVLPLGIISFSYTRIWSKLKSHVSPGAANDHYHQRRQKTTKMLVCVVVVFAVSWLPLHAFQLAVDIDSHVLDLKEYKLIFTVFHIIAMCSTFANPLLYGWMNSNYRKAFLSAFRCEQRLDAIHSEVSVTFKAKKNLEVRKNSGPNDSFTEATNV

[12] = target: T1, CALCR
T1 sequence (P30988 1-474, species assumed, looked up): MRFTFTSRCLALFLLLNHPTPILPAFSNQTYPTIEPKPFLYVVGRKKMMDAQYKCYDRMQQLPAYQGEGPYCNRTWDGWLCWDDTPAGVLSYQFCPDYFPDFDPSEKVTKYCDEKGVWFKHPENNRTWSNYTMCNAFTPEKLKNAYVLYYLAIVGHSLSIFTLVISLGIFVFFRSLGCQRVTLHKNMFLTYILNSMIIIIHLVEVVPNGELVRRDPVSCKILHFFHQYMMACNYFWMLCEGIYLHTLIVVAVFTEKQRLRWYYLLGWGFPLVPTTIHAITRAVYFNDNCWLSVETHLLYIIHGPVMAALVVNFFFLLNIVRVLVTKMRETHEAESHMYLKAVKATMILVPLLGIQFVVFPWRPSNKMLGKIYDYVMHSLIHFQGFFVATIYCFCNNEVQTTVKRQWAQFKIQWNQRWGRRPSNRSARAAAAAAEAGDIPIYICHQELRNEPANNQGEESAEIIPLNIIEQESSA

Chain of Dulaglutide (Fc fusion) (chain): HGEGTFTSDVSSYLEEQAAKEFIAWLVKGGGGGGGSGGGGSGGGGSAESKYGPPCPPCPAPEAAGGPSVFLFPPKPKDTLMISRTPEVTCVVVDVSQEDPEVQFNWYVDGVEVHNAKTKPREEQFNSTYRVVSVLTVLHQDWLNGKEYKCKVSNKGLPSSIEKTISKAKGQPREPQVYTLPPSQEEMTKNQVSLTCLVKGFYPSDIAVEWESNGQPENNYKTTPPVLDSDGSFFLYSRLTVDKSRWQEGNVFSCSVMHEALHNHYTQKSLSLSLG
Chain of mouse glucagon receptor (mouse) (Q61606 27-485): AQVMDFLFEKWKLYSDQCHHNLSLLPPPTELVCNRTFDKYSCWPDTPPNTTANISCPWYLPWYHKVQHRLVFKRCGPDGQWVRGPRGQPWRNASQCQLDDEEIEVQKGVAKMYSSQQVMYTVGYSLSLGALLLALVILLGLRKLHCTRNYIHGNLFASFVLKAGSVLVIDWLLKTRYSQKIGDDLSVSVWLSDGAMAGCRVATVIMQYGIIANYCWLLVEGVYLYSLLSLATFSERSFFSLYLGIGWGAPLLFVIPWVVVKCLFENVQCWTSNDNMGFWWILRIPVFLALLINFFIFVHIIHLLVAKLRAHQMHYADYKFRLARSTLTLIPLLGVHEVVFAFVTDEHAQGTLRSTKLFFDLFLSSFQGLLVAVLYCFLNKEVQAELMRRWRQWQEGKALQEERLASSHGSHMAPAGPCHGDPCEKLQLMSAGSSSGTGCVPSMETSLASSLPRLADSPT
Chain of rat glucagon receptor (rat) (P30082 27-485): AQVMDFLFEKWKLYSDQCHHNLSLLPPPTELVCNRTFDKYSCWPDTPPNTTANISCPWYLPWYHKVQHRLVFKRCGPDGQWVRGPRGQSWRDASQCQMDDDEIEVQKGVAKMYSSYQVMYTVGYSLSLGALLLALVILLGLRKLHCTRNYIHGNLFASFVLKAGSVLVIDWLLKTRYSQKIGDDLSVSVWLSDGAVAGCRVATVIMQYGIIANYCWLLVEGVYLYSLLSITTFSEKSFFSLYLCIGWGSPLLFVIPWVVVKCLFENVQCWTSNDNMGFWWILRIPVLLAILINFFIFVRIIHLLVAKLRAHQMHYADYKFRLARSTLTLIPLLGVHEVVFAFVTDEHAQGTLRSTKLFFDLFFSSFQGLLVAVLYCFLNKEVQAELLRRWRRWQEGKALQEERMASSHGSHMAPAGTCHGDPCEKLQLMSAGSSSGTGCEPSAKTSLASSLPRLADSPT
Chain of human glucagon receptor (human) (P47871 26-477): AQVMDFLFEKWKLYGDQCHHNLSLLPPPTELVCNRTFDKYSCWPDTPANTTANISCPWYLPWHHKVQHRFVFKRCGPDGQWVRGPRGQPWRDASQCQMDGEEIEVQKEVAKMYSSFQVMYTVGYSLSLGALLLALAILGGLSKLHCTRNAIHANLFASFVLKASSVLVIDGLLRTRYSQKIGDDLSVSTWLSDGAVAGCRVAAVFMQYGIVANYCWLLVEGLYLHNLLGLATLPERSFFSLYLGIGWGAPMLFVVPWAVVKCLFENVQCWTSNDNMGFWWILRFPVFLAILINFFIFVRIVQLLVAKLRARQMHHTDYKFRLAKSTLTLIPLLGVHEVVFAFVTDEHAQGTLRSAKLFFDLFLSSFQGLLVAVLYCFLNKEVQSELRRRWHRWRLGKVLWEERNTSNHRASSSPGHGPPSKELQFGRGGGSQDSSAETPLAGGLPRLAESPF

Molecule: Ser-8 GLP1 (from UniProt P01275 98-127) (peptide)
EC50, receptor cAMP assay [1]: > 100 nM | EC50, receptor cAMP assay [2]: > 100 nM | EC50, receptor cAMP assay [6]: 0.08 nM | EC50, receptor cAMP assay [4]: > 100 nM | EC50, receptor cAMP assay [5]: 0.06 nM

Molecule: Sauvagine (peptide; unit assumed)
Max response, cAMP assay [7]: 107% | Max response, cAMP assay [8]: 106%

Molecule: Sauvagine (peptide)
RC50, cAMP assay [7]: 0.0034 µM | RC50, cAMP assay [8]: 0.000308 µM

Molecule: PYY3-36 (from UniProt P10082 31-64) (peptide)
EC50, cAMP assay (LANCE) on receptor-expressing cells [9]: 66.4 nM | EC50, cAMP assay (LANCE) on receptor-expressing cells [10]: 0.03 nM | EC50, cAMP assay (LANCE) on receptor-expressing cells [11]: 0.06 nM

Second part, the molecule after the results:

EC50, receptor cAMP assay [1]: > 100 nM | EC50, receptor cAMP assay [2]: > 100 nM | EC50, receptor cAMP assay [3]: > 100 nM | EC50, receptor cAMP assay [4]: > 100 nM | EC50, receptor cAMP assay [5]: 0.035 nM
Molecule: Dulaglutide (Fc fusion)

Max response, cAMP assay [12]: 101% | RC50, cAMP assay [12]: 0.000776 µM
Molecule: CGNLSTCMLGTYTQDFNKFHTFPQTAIGVGAP (peptide, UniProt P01258 85-116, looked up, species assumed, ends and bridges not checked; cysteine pairing not given here) [Calcitonin]
